Data as given in patent US20250179187A1, “ANTI PD-L2 ANTIBODY” (REJUVERON SENESCENCE THERAPEUTICS AG, priority 2022, published 2025).

Columns and labels:
recombinant hPD-L2 = biological target: T1, recombinant hPD-L2 (Homo sapiens, UniProt Q9BQ51); assay: ELISA with recombinant hPD-L2; type: binding; conditions: compared to a panel of commercially available anti-PD-L2 antibodies
T1 sequence (Q9BQ51 20-273): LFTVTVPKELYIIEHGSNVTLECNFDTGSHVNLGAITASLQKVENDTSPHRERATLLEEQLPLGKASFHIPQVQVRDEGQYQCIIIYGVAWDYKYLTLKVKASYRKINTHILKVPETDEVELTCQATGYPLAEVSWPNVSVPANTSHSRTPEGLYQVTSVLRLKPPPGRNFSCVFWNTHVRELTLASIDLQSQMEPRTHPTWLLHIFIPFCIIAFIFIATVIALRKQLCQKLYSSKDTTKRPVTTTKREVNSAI

recombinant mPD-L2 = biological target: T2, recombinant mPD-L2 (Mus musculus, UniProt Q9WUL5); assay: ELISA for mPDL2; type: binding
T2 construct: purchased Sino Biological 50804-M08H-B
T2 sequence (Q9WUL5 20-247): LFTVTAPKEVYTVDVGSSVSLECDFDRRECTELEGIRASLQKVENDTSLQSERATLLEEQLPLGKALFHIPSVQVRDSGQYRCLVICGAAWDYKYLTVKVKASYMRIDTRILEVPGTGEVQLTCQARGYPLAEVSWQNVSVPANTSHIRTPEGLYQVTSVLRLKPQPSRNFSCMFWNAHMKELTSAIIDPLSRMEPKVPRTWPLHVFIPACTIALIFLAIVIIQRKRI
Description: ELISA plates were coated with recombinant mPDL2 (Sino Biological, cat 50804-M08H-B, lot LC10SE0706) at a concentration of 2 micrograms/milliliter at 4° C. for 15 h. Coating was then washed two times with PBS and blocked with 0.5% bovine serum albumin (BSA)/PBS at 37° C. for one hour. Blocking was removed and appropriate antibody concentrations diluted in 0.5% BSA/PBS for 1 hour at 37° C. Plates were then washed five time in PBS and a goat anti-mouse-HRP (Jackon Immuno Research cat #115-035-071) diluted in 0.5% BSA/PBS was added and incubated for 30 minutes at 37° C. Plates were washed again five times with PBS and TMB substrate (Medicago cat #10-9405) was added for 30 minutes at 37° C. in the dark. Reaction was stopped with 1N HCl and read and optical densities read on a standard spectrophotometer plate reader at […].

[1] = biological target: T3, cellular hPD-L2 expressed on CHOK-1 cells (Homo sapiens, UniProt Q9BQ51); assay: Binding of antibodies to cellular hPD-L2 on CHO-K1 cells by flow cytometry; conditions: compared to a panel of commercially available anti-PD-L2 antibodies
T3 construct: GFP; expressed in transfected cells; host or cells: CHO-K1
T3 sequence (Q9BQ51 20-273): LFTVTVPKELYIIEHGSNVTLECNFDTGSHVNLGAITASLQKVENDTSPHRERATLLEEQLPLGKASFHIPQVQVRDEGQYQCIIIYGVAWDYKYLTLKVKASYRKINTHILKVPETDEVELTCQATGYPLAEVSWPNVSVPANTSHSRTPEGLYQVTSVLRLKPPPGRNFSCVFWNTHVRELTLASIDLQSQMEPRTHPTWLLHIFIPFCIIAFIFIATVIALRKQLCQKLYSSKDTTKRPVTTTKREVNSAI
Description: CHO-K1 cells over-expressing either hPDL2-GFP or mPD-L2 GFP were detached, washed in phosphate buffered saline (PBS) and adjusted to a cell concentration of around 1 million cells in cytometry buffer (CB, PBS containing 1% […]). Around 80,000 cells were then distributed into a round-bottom 96 well plate and the plate was centrifuged for 3 minutes at 400 g at 4° C. and supernatant discarded. Appropriate antibody concentrations in 50 microliter volumes were added to the wells and incubated for 30 minutes at 6-8° C. The plate was washed 3 times with PBS and relevant secondary antibodies (either AlexaFluor 647 Goat anti-Mouse IgG (H+L) (Invitrogen A21235/lot 1915807) or AlexaFluor 647 Goat anti-Rat IgG (H+L) (Invitrogen A21247/lot 1921562) were added for 30 minutes at 4° C. Cells were again washed with PBS two times, resuspended in CB and analyzed in either the Sony ID7000 Spectral Cell analyzer (Sony) or the GALLIOS Flow Cytometer (Beckman-Coulter) was used. EC50 was calculated using the Sigmoidal 4PL equation of the GraphPad Prism-9 software.

hPD-L2/hPD-1 interaction = biological target: T4, hPD-L2/hPD-1 interaction (Homo sapiens, UniProt Q9BQ51); assay: Reporter assay, blocking of cellular hPD-L2/hPD-1 interaction (Jurkat hPD-1 / CHO-K1 hPD-L2 co-culture); type: cell-based; conditions: reporter in hPD-1 Jurkat cells co-cultured with hPD-L2 CHO-K1 cells; compared to MIH-18, 24F.10C12 and D7U86
T4 construct: host or cells: CHO-K1 (hPD-L2) co-cultured with Jurkat PD-1 effector cells
T4 sequence (Q9BQ51 20-273): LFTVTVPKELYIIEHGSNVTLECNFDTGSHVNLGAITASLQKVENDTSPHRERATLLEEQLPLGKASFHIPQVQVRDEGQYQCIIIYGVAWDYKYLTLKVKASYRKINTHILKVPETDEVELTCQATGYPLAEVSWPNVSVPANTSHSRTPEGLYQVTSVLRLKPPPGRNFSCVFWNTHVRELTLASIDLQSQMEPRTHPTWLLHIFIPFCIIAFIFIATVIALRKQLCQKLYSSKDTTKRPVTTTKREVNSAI
Description: Cellular blocking activity of antibodies according to the present invention was assessed by with the Promega (Southampton, Hampshire, UK) PD-1/PD-L2 blockade bioassay (Promega, Cat No. CS187131-1), which is a bioluminescent cell-based assay that is used to measure the potency and stability of antibodies and other biologics designed to block the hPD-1/PD-L2 interaction. In brief, CHO-K1 cells overexpressing hPD-L2 were thawed and plated in a 96 well plate. The following day, appropriate concentrations of antibodies were added to the wells. Jurkat PD-1 effector cells, expressing a luminescent NFAT reporter for cell activation, were subsequently thawed and added to the wells immediately. The co-culture was incubated for 6 hours and read using the SpectraMax i3× reader (Molecular Devices, Wokingham, UK). GraphPad Prism 9.0 (GraphPad Software, La Jolla, Ca) was used for the data analysis and data was plotted using a four-parameter non-linear regression model.

[2] = biological target: T5, recombinant hPD-1 binding to CHOK-1 cell expressing hPD-L2 (Homo sapiens, UniProt Q9BQ51); assay: Blocking of recombinant hPD-1 binding to cellular hPD-L2 by flow cytometry; type: cell-based; conditions: compared to a panel of commercially available anti-PD-L2 antibodies
T5 construct: GFP; host or cells: CHO-K1
T5 sequence (Q9BQ51 20-273): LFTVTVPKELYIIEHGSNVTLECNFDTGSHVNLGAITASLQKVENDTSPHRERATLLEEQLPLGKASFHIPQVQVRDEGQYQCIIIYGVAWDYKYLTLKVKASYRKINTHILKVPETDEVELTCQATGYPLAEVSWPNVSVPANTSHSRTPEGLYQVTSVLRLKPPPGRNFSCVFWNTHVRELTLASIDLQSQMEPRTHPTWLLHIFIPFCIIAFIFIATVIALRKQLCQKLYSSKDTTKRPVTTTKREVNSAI
Description: CHO-K1 cells over-expressing either hPDL2-GFP were detached, washed in phosphate buffered saline (PBS) and adjusted to a cell concentration of around 1 million cells in CB. Around 80,000 cells were then distributed into a round-bottom 96 well plate and the plate was centrifuged for 3 minutes at 400 g at 4° C. and supernatant discarded. A constant concentration of ligand recombinant hPD-1 ligand (Sino Biological 10377-H08H/lot LC13JA2207) of 15 micrograms/mL was incubated with respective concentration of antibody, added to the cells and incubated for 30 min at 6-8° C. Cells were washed 3 times in PBS and then incubated with a rabbit polyclonal anti-His (Abcam Ab1187/lot GR3369369-1) in CB and subsequently washed three times in PBS. Cells were then incubated with a labeled anti-rabbit secondary (AlexaFluor 647 Goat anti-Rabbit IgG (H+L) (Invitrogen A21244/lot 1910774) for 15 minutes at 4° C., washed two times in PBS, resuspended in CB and analyzed in the Sony ID7000 Spectral Cell analyzer (Sony).

binding activity against recombinant hPD-L2 (recombinant hPD-L2): superior binding activity
cross-reactivity to recombinant mPD-L2 (recombinant mPD-L2): shows cross-reactivity
binding activity against cellular hPD-L2 [1]: superior binding activity
blocking activity against cellular hPD-L2/hPD-1 interaction (hPD-L2/hPD-1 interaction): superior blocking activities
blocking activity against recombinant hPD-1 binding to CHOK-1 cell expressing hPD-L2 [2]: superior blocking activity
B1: VH0/VK0-mIgG1: parental murine anti-PD-L2 antibody on mIgG1 backbone; SEQ ID NO: 21/SEQ ID NO: 22 (antibody, V domains shown)
VH: QVQLQQSGAELVRPGTSVKVSCKASGYAFSNYFIEWVKQRPGQGLEWIGLNIPGSGGSNYAEKFKGKATLTADKSSSTAYMQLSSLTSEDSAVYFCARRRLPPDWYFDVWGTGTTVTVSS
VL: DVVMTQTPLSLPVSLGDQASISCRSSQSLVHSDGNTYLHWYLQKPGQSPKLLIYKVSNRFSGVPDRFSGSGSGTDFTLKISRVEAEDLGVYFCSQSTHVPWTFGGGTKLEIK
